Measured values taken from US20130209439A1, “INHIBITORS OF PDE4 BINDING TO HSP20” (THE UNIVERSITY COURT OF THE UNIVERSITY OF GLASGOW, priority 2010, published 2013).

T1: His-HSP20 (purified recombinant His-tagged HSP20) (human, UniProt O14558 1-160)
T1 construct: Expressed in E. coli BL21 from pET28c and purified on nickel; also called HSP20-His; HSP20-6His; not shown: His tag from the pET28c vector
T1 sequence: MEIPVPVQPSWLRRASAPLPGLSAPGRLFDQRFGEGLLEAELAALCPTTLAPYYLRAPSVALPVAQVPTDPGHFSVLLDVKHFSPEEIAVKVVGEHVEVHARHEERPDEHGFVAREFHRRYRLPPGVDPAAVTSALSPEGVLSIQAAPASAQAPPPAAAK


Target: T1, His-HSP20 (purified recombinant …)
Assay: PDE4D5 peptide array overlaid with HSP20-6His
Details: not given
Source text: PDE4 isoform localisation invariably depends on protein-protein interactions, with PDE4s shown to associate with a diverse group of interacting partners such as RACK1^{32, 36}, βarrestin³⁶, β₁-Ar³⁷, DISC1³⁸, the p75 neurotrophin receptor³⁹ and the cardiac IKs potassium channel⁴⁰. […] Dark spots represent positive areas of HSP20 interaction whereas clear spots are negative for the association (FIG. 4A).

| Molecule | binding result |
| --- | --- |
| YNDSSVLENHHLAVGFKLLQEENCD (peptides 93 to 96 span Y461-K500; SPOT-immobilised; also called spot 93) [25mer peptide 93 of the PDE4D5 peptide array] | binds |
| VLENHHLAVGFKLLQEENCDIFQNL (peptides 93 to 96 span Y461-K500; SPOT-immobilised; also called spot 94) [25mer peptide 94 of the PDE4D5 peptide array] | binds |
| HLAVGFKLLQEENCDIFQNLTKKQR (peptides 93 to 96 span Y461-K500; SPOT-immobilised; also called spot 95) [25mer peptide 95 of the PDE4D5 peptide array] | binds |
| FKLLQEENCDIFQNLTKKQRQSLRK (peptides 93 to 96 span Y461-K500; SPOT-immobilised; also called spot 96) [25mer peptide 96 of the PDE4D5 peptide array] | binds |

Tested on: Phospho-Ser16 HSP20 in neonatal cardiac myocytes
Assay: Ser16 phosphorylation of endogenous HSP20 in neonatal cardiac myocytes (Western blot)
Assay type: cell-based, rat
Details: cardiomyocytes, stimulated with isoproterenol alone or with PKA inhibitor pre-treatment; data not shown
Method: FIG. 2. The phosphorylation of HSP20 at Ser16 is modulated by PDE4 activity in cardiac myocytes. A, Neonatal cardiac myocytes were treated with isoprenaline for indicated times with or without pre-treatment with the PDE4-specific inhibitor, rolipram. Cellular lysates were blotted for HSP20 and Phospho-Ser16 HSP20. B, Quantifications of data from FIG. 2A (n=3). * Denotes significance at a level p<0.05 over iso treatment.
(§1) HEK293B2 cells are a stable cell line overexpressing the GFP-tagged β2AR were cultured as previously described^48. HEK293B2 cells were transiently transfected with wild type HSP20 or a phosphorylation defective HSP20 (S16A) or a phosphorylation mimic HSP20 (S16D). Neonatal cardiac myocytes were prepared and cultured as previously described^30. Cell lysis, immunopurification and western blotting was done as described before by us in some detail^48. Briefly, HEK 293 cells were transiently transfected with wild-type HSP20 by using Polyfect Transfection Reagent (Qiagen). Transfected HEK 293 cells were treated with 10 μM bs906 or 10 μM control peptide for 0, 15, 30, 60 and 120 min. Control and treated transfected HEK 293 cells were then washed thrice with ice cold PBS (phosphate buffered saline) before cellular lysates were prepared. Cellular lysates were prepared in lysis buffer containing 25 mM Hepes, pH 7.5, 2.5 mM EDTA, 50 mM NaCl, 50 mM NaF, […], 10% (v/v) glycerol, 1% (v/v) Triton X-100 and Complete™ EDTA-free protease inhibitor cocktail tablets (Roche). Protein concentration of lysates were determined using the Bradford assay and all samples were equalised for protein concentration. Proteins were separated by SOS/PAGE (4-12% Bis-Tris gels) and transferred onto nitrocellulose membranes for Western blotting. Antibodies were used to detect phospho-proteins and native proteins in lysates from control and treated cells
To determine whether inhibition of PDE4 activity had similar effects on endogenous phospho-HSP20 levels in heart cells, similar experiments were undertaken using neonatal cardiomyocytes (FIG. 2).

| Molecule | HSP20 phosphorylation after PKA inhibitor pre-treatment |
| --- | --- |
| O=S(=O)(NCCNC/C=C/c1ccc(Br)cc1)c1cccc2cnccc12 [Peptide H89, H89] | markedly attenuated HSP20 phosphorylation |
| CCCCCCOC(=O)[C@]1(O)C[C@@H]2O[C@@]1(C)n1c3ccccc3c3c4c(c5c6ccccc6n2c5c31)C(=O)NC4 [KT5720] | markedly attenuated HSP20 phosphorylation |

Target: T1, His-HSP20 (purified recombinant …)
Assay: SPOT peptide array overlaid with purified His-Hsp20
Details: not given
Method: A variety of peptides were generated and SPOT-synthesised onto slides which were then overlaid with 10 μg/ml of purified His-Hsp20. Interaction with peptides and Hsp20 was evaluated by probing slides with anti-His or Hsp20 antibodies and analysed using enhanced chemi-luminescence techniques, Negative controls used anti-His antibody only with no overlay of His-Hsp20 protein (data not shown).

| Molecule | binding result |
| --- | --- |
| Ac-GFKLL-NH2 (On the array SPOT-synthesised on a slide; also called peptide No 11) [Ac-GFKLL-NH2] | binds |
| Ac-GFALL-NH2 (Negative control; On the array SPOT-synthesised on a slide; also called peptide No 16) [Ac-GFALL-NH2] | no binding (tested: 10 ug/ml His-Hsp20 overlay) |
| Ac-KFKLL-NH2 (On the array SPOT-synthesised on a slide; also called peptide No 13) [Ac-KFKLL-NH2] | binds |
| Ac-RFKLL-NH2 (On the array SPOT-synthesised on a slide; also called peptide No 14) [Ac-RFKLL-NH2] | binds |
| Ac-GFRLL-NH2 (On the array SPOT-synthesised on a slide; also called peptide No 12) [Ac-GFRLL-NH2] | binds |
| Ac-FKLLQ-NH2 (On the array SPOT-synthesised on a slide; also called peptide No 9) [Ac-FKLLQ-NH2] | binds |
| Ac-FQNLTK-NH2 (On the array SPOT-synthesised on a slide; also called peptide No 6) [Ac-FQNLTK-NH2] | binds |
| Ac-FQNLTR-NH2 (On the array SPOT-synthesised on a slide; also called peptide No 5) [Ac-FQNLTR-NH2] | binds |
| Ac-YQNLTK-NH2 (On the array the peptide was SPOT-synthesised on a slide; the soluble form Ac-...-NH2 was made 'to resemble SPOT synthesised peptides'; also called peptide No 3) [Ac-YQNLTK-NH2] | binds |
| Ac-FQNLTA-NH2 (Negative control; On the array SPOT-synthesised on a slide; also called peptide No 4) [Ac-FQNLTA-NH2] | no binding (tested: 10 ug/ml His-Hsp20 overlay) |

Tested on: Phospho-Ser16 HSP20 in HEKB2 cells
Assay: Ser16 phosphorylation of HSP20 in HEKB2 cells overexpressing HSP20 (Western blot)
Assay type: cell-based
Details: HEKB2 cells, stimulated with isoproterenol alone; data not shown
Method: FIG. 1. The phosphorylation of HSP20 at Ser16 is modulated by PDE4 activity in HEKB2 cells. A, HEKB2 cells overexpressing HSP20 or HSP20 ser16-Ala mutant were treated with isoprenaline for indicated times. Cellular lysates were blotted for HSP20 and Phospho-Ser16 HSP20. B, HEKB2 cells overexpressing HSP20 were treated with isoprenaline for indicated times, Cellular lysates were blotted for HSP20 and Phospho-Ser16 HSP20. C, HEKB2 cells overexpressing HSP20 were treated with isoprenaline for indicated times following pre-treatment with the PDE4-specific inhibitor, rolipram. Cellular lysates were blotted for HSP20 and Phospho-Ser16 HSP20. D, Quantifications of data from FIGS. 1B and 1C (n=4). * Denotes significance at a level p<0.05 E, Lysate from untransfected HEKB2 cells was blotted for HSP20 and Phospho-Ser16 HSP20.
as §1
In contrast to this, when we transfected these cells with a phospho-null mutant form, Ser16Ala-Hsp20, then no such change was observed (FIG. 1A). In order to evaluate whether PDE4 activity played a role in regulating this phosphorylation process in Hsp20-transfected HEKB2 cells, cells that had either been pre-treated or not with the PDE4 selective inhibitor rolipram were subsequently challenged with isoprenaline (1 μM) (FIGS. 1B and C). […] Endogenous levels of phospho-HSP20 or HSP20 were not detectable in HEKB2 cells (FIG. 1E).

| Molecule | HSP20 phosphorylation after PKA inhibitor pre-treatment |
| --- | --- |
| O=S(=O)(NCCNC/C=C/c1ccc(Br)cc1)c1cccc2cnccc12 [Peptide H89, H89] | markedly attenuated HSP20 phosphorylation |
| CCCCCCOC(=O)[C@]1(O)C[C@@H]2O[C@@]1(C)n1c3ccccc3c3c4c(c5c6ccccc6n2c5c31)C(=O)NC4 [KT5720] | markedly attenuated HSP20 phosphorylation |

Tested on: pS16-Hsp20 in SH-SY5Y cells
Assay: Cell based Hsp20-PDE4D disruptor assay, nucleofected SH-SY5Y cells, pS16-Hsp20 Western blot
Set-up: species or system human
Details: SH-SY5Y cells nucleofected with 500 μM peptide, 2 hours
Method: FIG. 9. Disrupter induced HSP20 phosphorylation SH-SY5Y cells nucleofected with 500 μM of each peptide and incubated for 2 hours prior to harvesting. Each assay was blotted for Hsp20, pS16-Hsp20 and tubulin. Changes in levels of phospho-Hsp20 relative to DMSO only controls were quantified through densitometry analysis and each assay was normalised to α-tubulin loading control. The results are the average of three separate experiments and error bars represent SEM. *=p<0.05, **=p<0.01 compared to DMSO only controls (Student-T-test)
SDS-PAGE analysis was done on NuPage® pre-cast gels X-cell apparatus (Invitrogen, Paisley) using MES-SDS running buffer, Samples were reduced in Laemmli 2× loading buffer (4% SOS) with 5% β-mercaptoethanol. For Western Blotting (WB) analysis, samples were transferred using NuPage® X-cell blotting module onto a nitrocellulose membrane. Membranes were blocked using 5% Milk in 1×TBST (w/v). Antibodies were incubated in 1% milk in 1×TBST (w/v) for either 1 hour at room temperature or overnight at 4° C. Signals were detected using enhanced chemiluminescence system (Pierce) and developed on an X-omat film developer. Subsequent densitometry analysis was carried out using Quantity One (Bio-Rad).
SH-SY5Y cells (ATCC-CRL-2266) were grown in Dulbecco's Modified Eagle's Medium (DMEM) and F12-Ham's at a 1:1 ratio, media was supplemented with 10% (v/v) fetal bovine serum (FBS), 1% (v/v) L-Glutamine, 1% (v/v) Minimum Essential Medium—With Non-essential Amino Acids (MEM-NAA) and 1% (v/v) Pen/strep. Cells were cultured in a humidified, 5% (v/v) CO2, 37° C. incubator.
SH-SY5Y cells were nucleofected using Cell Line Nucleofector® Kit-V in accordance with manufacturers protocol (Amaxa Biosystems). Setting A-23 on the Nucleofector I device was used which increases cell viability. For each assay, 500 μM of disrupter peptide was incubated with 100 μl of nucleofection solution containing approximately 2×10^6 cells. After nucleofection cells were re-suspended in 500 μl of culture media before being transferred to a 6 well plate with a final volume of 2 ml per well. Cells were incubated for 2 hours prior to harvesting with […] containing protease and phosphatase inhibitors (Roche).
As the cell permeability of the peptides is unknown we used an electroporation technique to introduce the peptides into the SH-SY5Y cells. The Amaxa cell-line specific Nucleofector Kit V (Lonza) was used to transfect the peptides into the cells. […] Each assay used a final concentration of 500 μM of peptide in nucleofector solution containing approximately 2×10^6 SH-SY5Y cells. As peptides were dissolved in 100% DMSO, control transfections with DMSO only were used to compare any changes in phospho-Hsp20 levels. After each transfection the solution was reconstituted in culture media and incubated for 2 hours to allow for cell adhesion prior to the harvesting of viable cells.

| Molecule | pS16-Hsp20 levels relative to DMSO only controls |
| --- | --- |
| Ac-GFRLL-NH2 [Peptide 12] | induced an average increase when compared with DMSO only controls |
| Ac-GFKLL-NH2 [Peptide 11] | indistinguishable from DMSO only controls |
| Ac-KFKLL-NH2 [Peptide 13] | induced an average increase when compared with DMSO only controls |
| Ac-YQNLTK-NH2 [Peptide 3] | no effect on phosphorylation levels |
| Ac-FKLLQ-NH2 [Peptide 9] | indistinguishable from DMSO only controls |
| Ac-FQNLTK-NH2 [Peptide 6] | significant increase in pS16-Hsp20 levels |
| Ac-GFALL-NH2 [Peptide 16] | average value similar to the DMSO only controls |
| Ac-LTK-NH2 (Ac-Leu-Thr-Lys-NH2) [Peptide 7] | significant increase in pS16-Hsp20 levels |
